Results from patent publication US20190049463A1 (VIB VZW, published 2019).
Changes are numbered by the printed parent chain. One block for each molecule: values may come before it.

Assays:
[1] = target: β2AR truncated after amino acid 365 (β2AR-365), native (human) (UniProt P07550); test: cell-based or functional assay
[2] = target: T1, β2AR truncated after amino acid 365 (β2AR-365), native (human, UniProt P07550 1-365); test: listed as β2AR-specific; phage selection and ELISA on reconstituted β2AR-365
T1 construct: Expressed in Sf9 insect cells; Used detergent-solubilized, in phospholipid vesicles, in Sf9 membranes or in HDL particles; In the bimane assays it carried monobromobimane on Cys265; also called WT β2AR
Description: In a first screen we compared the binding of the nanobodies on the native and heat denatured β₂AR antigen in an ELISA. […] Next, this plate was incubated at 80° C. for two hours.
A single llama received six weekly administrations of the reconstituted truncated β₂AR. Lymphocytes were isolated from the blood of the immunized llama and total RNA was prepared from these cells. […] Antigen-bound phages were recovered from antigen-coated wells either with thriethylamine pH11 and neutralized with Tris-HCl pH7 or by the addition of freshly grown TG1 E. coli cells. After two rounds of bio-panning, 96 individual colonies were randomly picked and the nanobodies produced as a soluble HIS-tagged protein in the periplasm of the TG1 cells.

[3] = target: β2AR-T4L fusion protein (third intracellular loop replaced by T4 lysozyme, truncated at position 365) (human) (UniProt P07550); test: cell-based or functional assay
[4] = target: T1, β2AR truncated after amino acid 365 …; test: cell-based or functional assay

- Ki of (-)-isoproterenol, high affinity state, β2AR/HDL reconstituted with Gs [1]: 0.00107 µM
- Ki of (-)-isoproterenol, low affinity state, β2AR/HDL reconstituted with Gs [1]: 0.0953 µM
- Ki of (-)-isoproterenol, low affinity state, β2AR/HDL reconstituted with Gs in the presence of 10 µM GTPγS [1]: 0.0952 µM
- fold increase of the affinity of isoproterenol for β2AR/HDL [1]: 100 fold
Molecule: Gs heterotrimer

- binding result [2]: binds
B1: Nanobody CA3477 (VHH)
VHH: QVQLQESGGGLVQAGGSLRLSCAASGSIFSLNDMGWYRQAPGKQRELVAAITSGGSTNYADSVKGRFTISRDNAKNTVYLQMNSLKPEDTAVYYCNAKVAGTFSIYDYWGQGTQVTVSS
notes: also called NB77

- binding result [2]: binds
B2: Nanobody CA3475 (VHH)
VHH: B1 VHH with S17P, K98V, I105T
notes: also called NB75

- binding result [2]: binds
B3: Nanobody CA3472 (VHH)
VHH: B1 VHH with A14P, T52S, S56R, T57L, K98V, I105T
notes: also called NB72 (short notation shared with CA2772)

- binding result [2]: binds
B4: Nanobody CA3420 (VHH)
VHH: B1 VHH with E46D, N58K, I69V
notes: also called NB20

- binding result [2]: binds
B5: Nanobody CA3433 (VHH)
VHH: B1 VHH with Q44L, I51V
notes: also called NB33

- binding result [2]: binds
B6: Nanobody CA3484 (VHH)
VHH: B1 VHH with Q44L, N58K, S62P, P87A
notes: also called NB84 (short notation shared with CA2784)

- Ki of (-)-isoproterenol, high affinity state, β2AR-T4L/HDL with 1 µM Nb80 (33.5 without) [3]: 0.00056 µM
- fold increase of the affinity of isoproterenol for β2AR-T4L/HDL [3]: 60 fold
B7: Nanobody-80 (Nb80), reference number CA2780 (VHH, not shown: small tags and cut ends)
VHH: QVQLQESGGGLVQAGGSLRLSCAASGSIFSINTMGWYRQAPGKQRELVAAIHSGGSTNYANSVKGRFTISRDNAANTVYLQMNSLKPEDTAVYYCNVKDYGAVLYEYDYWGQGTQVTVSS

- Ki of (-)-isoproterenol for β2AR, [3H]-DHA competition on Sf9 membranes with 1 µM nanobody (295 without nanobody) [4]: 0.0138 µM
B8: Nanobody 65, reference number CA2765 (VHH)
VHH: B7 VHH with N61D, K64R, A75K

- binding result [2]: binds
B9: Nanobody CA3431 (VHH)
VHH: B7 VHH with A14P
notes: also called NB31

- binding result [2]: binds
B10: Nanobody CA2764 (VHH)
VHH: B7 VHH with N61D, A75K
notes: also called NB64

- binding result [2]: binds
B11: Nanobody CA3413 (VHH)
VHH: B7 VHH with Q44R
notes: also called NB13

- Ki of (-)-isoproterenol for β2AR, [3H]-DHA competition on Sf9 membranes with 1 µM nanobody (295 without nanobody) [4]: 0.0106 µM
B12: Nanobody 71, reference number CA2771 (VHH)
VHH: QVQLQESGGGLVQPGGSLRLSCAASGFAFSSYELRWYRQAPGKQHELVAGITTGGNTYYADSVKGRFTISRDNAKNTVYLQMSNLRPEDTAVYACNANWDLLSDYWGQGTQVTVSS

- binding result [2]: binds
B13: Nanobody CA3422 (VHH)
VHH: QVQLQESGGGLVQAGGSLRLSCAASGSIFSINAMGWYRQAPGKQRELVAASTSGDITNYADSVKGRFTISRDNAKNTVYLQMNSLEPEDTGVYYCNARGIYSDYAFADFNSWGQGTQVTVSS
notes: also called NB22

- binding result [2]: binds
B14: Nanobody CA2784 (VHH)
VHH: QVQLQESGGGLVQAGGSLRLSCAASGSIFSINAMGWYRQAPGKQRELVAAITSGGSTTYADSVKGRFTVSRDNAKNTVYLQMIRLKPEDTAVYYCHVRDIYSDFLGQYEYDYWGQGTQVTVSS
notes: also called NB84 (short notation shared with CA3484)

- Ki of (-)-isoproterenol for β2AR, [3H]-DHA competition on Sf9 membranes with 1 µM nanobody (295 without nanobody) [4]: 0.0194 µM
B15: Nanobody 67, reference number CA2767 (VHH)
VHH: QVQLQESGGGLVQAGGSLRLSCAASGTISSFIAMGWYRQSPGKQRELVAGITSGGETNYEDSVKGRFTISRDNAKNTLYLQMNTLKPEDTAVYYCNAQVFADIFNLINYWGQGTQVTVSS

- binding result [2]: binds
B16: Nanobody CA3424 (VHH)
VHH: QVQLQESGGGLVQAGGSLRLSCAASGSVFSLPTAGWYRQAPGKQRELVALITGSGSTHYADSVKGRFAISREYSKKTMDLQMNSLHREDTAVYFCYYRSTFTEYWGQGTQVTVSS
notes: also called NB24
